Assay: protease stability score; higher = more stable; yeast display proteolysis, trypsin and chymotrypsin;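 note: relative to predicted unfolded state with 0 unfolded-like and 1 meaning tenfold more protease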

## SEEEKHTREMSEMLLRTWETGDEEEYEHLADPHVRIDFNGKHYHGREEAVKLLRWLIEELGADHRTIHREEVQGEKVRLFTRVNVNGRDLRLIIRFVVINGRLTIMKIEIHTE
  protease stability score: 1.26

## SEEEKHVHRFLSEWTRSLKTGDEQRIVRLLDPTARLFFEGREYHGMETIAHQIVHDIRHHGFTLEVEIQDFHVQGDKAEHDGILIVKVDGKEIHRKLILVVTKIDGRWFLSEVIIK
  protease stability score: 0.923

## SEEEKHVIKMAEILLKSVLTGDWDKIKKMLDPNVKFHFHAENRHEEDHGMERVMDWMIKVRERFDVLEIEVTNSDVYGDKAVVDGRLINIIGDKRIETRVIIIIVVVDGRIHSIYFVIK
  protease stability score: 2.54

## SEEEKHVTSMMELWIHYIITGDEEFFLKLADPHTRFEIGDYENHGRDAVKWHRDHLGLDNVHSRIHIKELRAVGDKVHSHTHLVIHIGDKTIRMDTKVHIVYINGRITSIIVEIS
  protease stability score: 1.31

## SEEEKHWEDLVEHLHQIWLTGDEDTLRHRLDPNMRMDIDGKELHGRESIIEEIRRLGVDHVETKRKHSQGDKAHFDLIIRIDGKEHKMEIVIVVVNGKLKEVVLRRK
  protease stability score: 1.1

## SEEEKHWRKVINLLRRWHLTGDEHNLLELFDPNYRLHQGDKEIHGMELYIEIFERELKKVPNLKINFDSKHIEVQGEKARAETELDVNIDGRRIEFETRLYSIKFNGKWFVHSMEVK
  protease stability score: 0.553

## SEEEKIAEDLAREIEEDWLTGNEEYIMHLADPNVKSHINIDGKRIDTHGMEELTHWLSRYPNVRIEPKRMDVQGEKITLDFELNIGDKRVRVILYHIIINGRIKEIRIIIHHV
  protease stability score: 0.995

## SEEEKIFEMAIKLMRHTLQTGDESTLHRLLDPHVRVVIGDKTYVGREATEFLLTRIDHIHDVEIHEVELINGRVNMHGIVDGTIGDKRVHVESNWVASKYDGRWHLKSISFH
  protease stability score: 1.29

## SEEEKILDDILKLFLDDVRTGNEDSLHRLADPHVRQDYNGVELHGMELVVHWLVELRVEDWRHKDSDSAENRVHLNGIVDGNINGKKQRREIILVIRKVDGRWFLEHNIVI
  protease stability score: 1.23

## SEEEKILDKLMELLSRLVHTGDEKEWADLMDPDTKLHVGDKTYIGMEKVTEFLHEMRVHHLELHDKRVIGDKARVHTNLRGVIDGRDVNLETHMIITKINGKWVIHSVEVR
  protease stability score: 1.02

## SEEEKILEDALRLLIEVDETGNWKLLQEMIDPNVLVDINGRKYHGREQWIRLLHEFIRDAGVQRIHSDIEHIEIQGEKIIMHGMLDINGQRRRTEVIAHKYDGRWFVEEIRIR
  protease stability score: 2.11

## SEEEKILKEIAHLLIRSLITGDWKILRDLMDPHTKIHILQGDKVHNFHGWKAMTETLKQKLDRIDHVNFELRHMEVFDGRVHIEGVLHLNFDGQERFTEVRIIVVVIDGKLKEFELRIH
  protease stability score: 2.16

## SEEEKIMEELLRRIVNALQTGDEDFWSHLADPDTRFVLIQGEWSDEVHGRENALKFMEELKKRVPGMRIRVKDSRVQGEKLHVDGEIIYNGRSFDVEIRLRVVDGRIHEFQIIIR
  protease stability score: 2.06

## SEEEKIVDERIKILLESWDTGDWDSFIKMLDPNALSIVGEFVMHGRETVVDALDKLLKKLGVKMETHDTEHFEIYGNKARLETTIHLRVGDFHFKRRTRVHMEKVDGQWFITIYESG
  protease stability score: 1.31

## SEEEKKDHRQWERTFKAFLTGDEDTVHNLADPHVKTEVGDKEYHGRENFSKLISDLGVDHLNLKEIDTVNGRIHLLSEVRFNGQITKFIIIILKVNGQWHVESMEFH
  protease stability score: 0.441

## SEEEKKLNHWLELWLRSVVTGDEEHLERLADPHVRNHVGDFESHGREEVLKLMEMLKRTLGAKHIRIEIHHVDVQGDKVRMDTRIIIDAENHHLTLKSRMHTRKIDGRWYLHSLEID
  protease stability score: 1.06

## SEEEKKSKDALRFLEEVWKTGDWDDFRKMIDPHVRIEVNGRTYHGMEDAEKFARDLLKRVKNMKVSIRHIETQGDKMIVHGELNIDGVHSEIQIFTDKIDGRWLLKEVNFI
  protease stability score: 0.498

## SEEEKLAHEYVRHIIELLETGDEQNVQDLMDPNARSVMIIDGREIYTHGRDAFSHLLKLMGFDHSRLKDIKIYDGRVHSHIEVSVNGREVEVHLIVRKVDGRWVLQETRFHLH
  protease stability score: 1.19

## SEEEKLFKIMMKLLLEQTETGDEHFLKHQFDPHARLEIGEFDLHGWEFMDEHVRHWRYRDMELRRLEFQGNKIETRGLIIGEYNGRRLEISVRMIVLKIDGKWIIKHVHIH
  protease stability score: 1.42

## SEEEKLLEELAKMFIELWLTGNEEHLMHLADPNVRFRQGDKRSHGRENLKRLLHELHEEIRIHDIRMKDVRFVNGRSIFDGHLIVQVNGVEIRLDAELTIISVNGKIKEIEIRHR
  protease stability score: 1.08

## SEEEKLLTDWLRELEEVTRTGDEESIMRMVDPNDKMDVGDKHRHGMHAQEVWIEVFRRQFGIDNFEVRLIINHRRIVDGQAHVDGELQLIYNGRTTSLRIELIIDKFDGRWLISSIRYN
  protease stability score: 1.19

## SEEEKLQREMSKRWIEEVFTGNEEVFEQLADPNTIIDINGQHLHGMETFSKWSREHIKKLGWTQFDIKMRDSKVIGNKAKLDLELHVNGKVVKVEVNLEVIDGRIKKIEERHH
  protease stability score: -0.143

## SEEEKLRKSLVELILHALHTGDWERLTRLLDPHVRWDQGDKVFHGREDFKRAWTELGVDHFQLRHIEMQGDKLHIKGEMHVNGRTIHVDLDIEIINGRIEHHRVDTK
  protease stability score: 1.35

## SEEEKLSRELSKLILHYLHTGDWDQITELADPNVRIHDTINGRDNDNHGWEMLIALMEQLGVDVRRFHHIRVIGDKVHMEVELNFNGRTVHAEWTFKVVDGRMKSIEIRTK
  protease stability score: 1.34

## SEEEKLSRELVNEFLRLWKTGDWRRFHELADPDAKQQYNVNGQNFDYHGRDEVTDAVREFLNRLGVDHFHVHDSRIIGEKKEIDGHLNFNGRTHHIEMVVVVINGRVHKIEFHVR
  protease stability score: 0.28

## SEEEKLTREFAEMWRHTIETGDEEEMWRMADPNVRVDFDGKELHGRELFQEHFRKLGVDHFIVRRIHVQGEKLRIDGSHIYNGQHIHTELISQKVNGRWIIDQVKVH
  protease stability score: 1.36

## SEEEKLWHEIIRRILHSWDTGDEDTLNELIDPNARLIIDVNGRIIRRHGWEEMHEFIEKVRRDLGADHVHFDHINIQGNKVETDVTIEIGDKKMRSHLIIIVIDGQIHELKIIHR
  protease stability score: 1.83

## SEEEKMVEYAIRLIDSLIRTGDERVLMSLLDPHAKMDVNGKDLIGREFLKHWTHQYKNVKLRDIKVKDAEVQGDKIRIHVELEIEFNGRRDSRDETWYIDKFDGRWLVEEIRVK
  protease stability score: 1.15

## SEEEKNARDFLRLIFNHVHTGDFRHMSKLFDPHVRIQIGDKVFHGREEAERVWLEWRVEDIKIRHIDIQGDKLIVDTEVHGNFNGRNRNIETEIHVRKVDGKWILESMSVI
  protease stability score: 2.54

## SEEEKRADEFNRRWVHKMQTGDEESLHELIDPNAKLHFEGHDEVGMQRVSHTIVKFFLEIRVHYIHITDARVYDGRLELDTRVDGEFNGKRDTLKIELYVLKVNGVWLLKELRVS
  protease stability score: 1

## SEEEKRAEEWVKLMIHAHLTGDFHLLERFADPHTRVDFNGVENIGMEEVSRWIKEWRRRIDHTEIRLHRIRLQGDKVHVKTELILEYDGRTEFIDSRINLIVINGVLKELRVTLH
  protease stability score: 1.38

## SEEEKRAKKLIEIFMESIETGDWKEIHRMMDPTTRLEQGDYEHHGRDEIRELWLQELLDLGVERIRVKVHHVDVIDGKAHVDVTIHFNGVTQRRHYVIVKIDGRWMIKLVIIR
  protease stability score: 1.81

## SEEEKRARIASELLFEYLHTGDETLWEELMDPDVRLEINGRLFHGMDSFRHALEIWLKEIRLRDMRVRELHVIGDKIHVNSEDEVEVNGRVVNYESRLDMEKIDGRWRIKRTSIK
  protease stability score: 1.19

## SEEEKRIRDWARLMEEWRRTGDEEDMSRNLDPNARLILIIDGRNILFHGREEVVRVLEELKERLGFKHEEIKDSRVQGDFLHIHGTLRFDGVETEVRVDTIVINGVVRTLKYHFE
  protease stability score: 0.467

## SEEEKRMRDVLRRMEEALKTGDWKFLKDLLDPHTRTVINGRDRHGREFVLEVFSRFGADHSDIEDEDFQGNFVILHLEMEIGDKRIRLRIYIEKINGRWIWRHVIFD
  protease stability score: 2.85

## SEEEKRMTEDAEHFWRRFLTGDWRTLSRLIDPHVIIHINGVDLHGRHDAHREMEEHAEQFKNIKVHIDHIDVVGDKLHVDVTININGRRFKEEIIIVMFNGRVKELEVRTH
  protease stability score: 1.61

## SEEEKRNHEIAKKFIEAFETGDEDFVNHMADPHVKIIVDGVELHGRDQLHHVRKWLEERYPNVRWHLDDMRVQGNKVFLETTLHVGDKTRKSEIILIVINGRLKEIEMRIR
  protease stability score: 1.92

## SEEEKRWEDWARLMLNWLRTGDEEKISNLMDPNAKSETLIDGRRVEYHGREEVSRFLFELFEEFGIDHLHVRHYDVFDGVFHAHFRVHVGEKERELEVEFHVVDGRITVDTVKFH
  protease stability score: 1.5

## SEEEKSAKIAVDLLLKSQLTGDEQTISELLDPNVRLDVNGREYHGREEYKKWFKHMVERADHMEIRLRHVHFYDGQVHVIGILIIRVNGKELRWEQILVVDKIDGRWLLSEFNFH
  protease stability score: 2.63

## SEEEKSSHLSIRLWLEMLITGDEDHLEHLADPNVRIEFEGREFHGRERAMHWMRHVSRHMRIEHIQIRRIHYFDGRLQLEGRIDGNINGRNHRFDSELEVTKIDGRWLLTSERIE
  protease stability score: 1.24

## SEEEKTLERIARLHIQLWLTGDEDTLKKLADPDDRLVVDFENHTWEHHGREEVEKHTKHFLRHLRITHVDHHTVQIINGKAHMHTTVDFQVNGKIVKMHTTIIVVEVNGRLKFVRIEVH
  protease stability score: 1.22

## SEEEKTSHHLLKLIKHDRETGNEKRMEEYIDPHVKLLINGREFHGWEDALHWIREAGIKHFELKHIDIIGEKLRIDGVINYNGQTHRITFHAIKVDGVWLNKEINHG
  protease stability score: 0.121

## SEEEKTVKELVRLILHLLSTGDEEKWLHLADPNMRIEIDFNGKHVELHGREHVHWLLKQFKNARIEIELKHVHVYDGVAEITSILHYHQGDFHWHTESEVMVVVVDGRIKEISFRIR
  protease stability score: 2.24

## SEEEKVIWDIFQDWVRAYHTGNEDLIEHLMDPHVRLDINGKEKHGREWVRYHLHELREHIRTKEYEVHHFDVVDGRAHADYEFHVEYNGREFYRRTHIEIQIVNGKIRVINIRFE
  protease stability score: 1.43

## SEEEKWAELALEETLRHLKTGDPRVLLELADPNVKLDVNGREYHGREVFLNFIEEFREKFKNITIEVKDRDVVNGRLITHLRLIVNGKEERVHMRSHKVDGQWVLDSVKIE
  protease stability score: 1.9

## SEEEKWTEIAFTLWREVVETGDEHDVQEMADPNARYKQGDKEYHGREHLLEFMVKFFRHARVDDDDHKHVRTINGRVELQMRSEVTINGKLLITDVELIIVKVNGRWVVESLILG
  protease stability score: 1.43

## SEEEKYARKAIELMKHNYETGDFEKLSRLMDPHVRLHIGDKSHHGMDEFVHWVSQFDHMEMNVHDVRVQGDKIEIIGHLVVRIDGRERRTETYIHLHKFDGQWIVHTIEVR
  protease stability score: 1.34

## SEEEKYFEHWLKILLQNMHTGNEENLKRLADPTYRLHIGDKNFIGREMFLDSMRRIDHFDDAKLKSIETYGDYVHAEIDHDGRVDGRKIRVNTILLTLKVDGRWIVHSFKIE
  protease stability score: 0.827

## SEEENEAKSWLEYVIRLLETGDEDSLRKLMDPHVRLIQGDKEFHGRELVTDIISEHIRKVKNVRIRIDDIKFIGEKVYLHGTLEYGDKKHELHLITDKVNGRWLLRSIELR
  protease stability score: 2.56

## SEEENILEEMLKIFYESSRTGNEKTMQELFDPHARIEFEGVENIGMELAMRLTTHWRLQTVHIKDVRVIDGQIHMDGEERGVINGQEIRTEVDIISIKIDGRWLFHSKQIN
  protease stability score: 0.369
